Laboratory results taken from doi:10.1101/2025.10.13.682252.

Target: Biotinylated peptide BubR1 WT (Q293 to R302) (human)
Assay: pull-down

GST-tagged BubR1 TPR (wild type) (from UniProt O60566 1-230) (domain or fragment)
fold of protein bound against the W295A peptide: 5 fold
